“And” between values parts separate entries of the source, which are not always exact repeats. Identical values can stand only once.
Key:
[1] = biological target: recombinant Fasciola hepatica extracellular Cu/Zn superoxide dismutase (rFhSOD3), signal peptide removed (Fasciola hepatica); assay: SEC; Superdex 75 10/300 GL column, 400 uL/min, eluted into 1x PBS; standards conalbumin (76 kDa), carbonic anhydrase (29 kDa), aprotinin (6.5 kDa)
[2] = biological target: recombinant Fasciola hepatica cytosolic Cu/Zn superoxide dismutase (rFhSOD1) (Fasciola hepatica); assay: as above

In the case of “recombinant Fasciola hepatica extracellular Cu/Zn superoxide dismutase (rFhSOD3), signal peptide removed (enzyme)”, the stoichiometry N [1] is reported as 2 and 4.
With “recombinant Fasciola hepatica cytosolic Cu/Zn superoxide dismutase (rFhSOD1) (enzyme)” the stoichiometry N [2] was 2.

Reference: PMC9598480
